Reference: paper PMC9098913, “In vitro reconstitution of Escherichia coli divisome activation” (Nature Communications, 2022)

Test: Diffusion coefficient of His-tagged FtsAs and His-SUMO on Tris-NTA membranes (FRAP)
Procedure: To study colocalization of His-tagged variants of FtsA, 0.5–1 µM of Cy5 labelled His-tagged FtsAs were added to the chamber, incubated for 20 min and washed 6x with reaction buffer. […] To control the density of membrane-bound FtsA, SUVs without and with Tris-NTA lipids were mixed to obtain the respective Tris-NTA concentrations. To perform FRET/FRAP experiments, equimolar concentrations of Cy3 and Cy5 labelled His-tagged FtsAs (total 0.5–1 µM) or His-SUMO-Cys were added to a chamber and treated as above. […] FRAP experiments were performed as described before.
Bleaching the acceptor dye leads to an increase in the donor intensity, which can be used to quantify the Foerster Resonance energy transfer (FRET)[48]. FRET efficiency was quantified with E%=Ipost/Ipost+Ipre⋅100 , where Ipost is the intensity of the […] and Ipre is the […]. […] To extract the contribution of both processes, we adjusted a routine recently published by Gerganova et al.[33]. In short, the code provides the contribution of both modes of recovery by analysing the shape of the fluorescence recovery profile. […] Contribution of diffusion leads to a change of the slope of the outer borders of the bleached region (S4h right). Thus, by measuring the change of the slope of the border recovery, diffusion and simple on/off binding can be distinguished. We developed “FRAPdiff”, a graphical user interface, which uses the original fit routine by David Rutkowski. It can be used directly on.tiff movies with annotated bleach regions as ImageJ ROIs. In addition, we added optional bleach correction, user selectable projection axis (x or y), and optional mirroring of the recovery profiles, if bleaching was not symmetric. The original fit routine for estimating the recovery and diffusion dynamics can be found at https://github.com/davidmrutkowski/1DReflectingDiffusion. FRAPdiff is available at 10.5281/zenodo.6400639[49] under the GPLv3 open-source license.

B1: FtsA R286W-His6: FtsA R286W (1-405) with amphipathic helix replaced by C-terminal His-tag (protein)
chain: MIKATDRKLVVGLEIGTAKVAALVGEVLPDGMVNIIGVGSCPSRGMDKGGVNDLESVVKCVQRAIDQAELMADCQISSVYLALSGKHISCQNEIGMVPISEEEVTQEDVENVVHTAKSVRVRDEHRVLHVIPQEYAIDYQEGIKNPVGLSGVRMQAKVHLITCHNDMAKNIVKAVERCGLKVDQLIFAGLASSYSVLTEDERELGVCVVDIGGGTMDIAVYTGGALRHTKVIPYAGNVVTSDIAYAFGTPPSDAEAIKVRHGCALGSIVGKDESVEVPSVGGRPPWSLQRQTLAEVIEPRYTELLNLVNEEILQLQEKLRQQGVKHHLAAGIVLTGGAAQIEGLAACAQRVFHTQVRIGAPLNITGLTDYAQEPYYSTAVGLLHYGKESHLNGEAEVEKRVTASV
modifications: Cy3 or Cy5 at the N-terminus in the labelled form (sortagging as for native FtsA); left off: TwinStrep-SUMO, N-terminal, cleaved | 5xGlycine tag, N-terminal, kept | His6, C-terminal, kept
0.1% Tris NTA, + FtsZ, mean (n: WT 2, R286W 3)
  Diffusion Coefficient: 0.17 µm2/s
0.1% Tris NTA, + FtsZ, replicate Exp1
  Diffusion Coefficient: 0.12 µm2/s
0.1% Tris NTA, + FtsZ, replicate Exp2
  Diffusion Coefficient: 0.17 µm2/s
0.1% Tris NTA, + FtsZ, replicate Exp3
  Diffusion Coefficient: 0.22 µm2/s
0.1% Tris NTA, without FtsZ, mean (n: WT 2, R286W 3, SUMO 2)
  Diffusion Coefficient: 0.50 µm2/s
0.1% Tris NTA, without FtsZ, replicate Exp1
  Diffusion Coefficient: 0.48 µm2/s
0.1% Tris NTA, without FtsZ, replicate Exp2
  Diffusion Coefficient: 0.53 µm2/s
0.1% Tris NTA, without FtsZ, replicate Exp3
  Diffusion Coefficient: 0.50 µm2/s
0.4% Tris NTA, + FtsZ, mean (n: WT 2, R286W 3)
  Diffusion Coefficient: 0.08 µm2/s
0.4% Tris NTA, + FtsZ, replicate Exp1
  Diffusion Coefficient: 0.12 µm2/s
0.4% Tris NTA, + FtsZ, replicate Exp2
  Diffusion Coefficient: 0.11 µm2/s
0.4% Tris NTA, + FtsZ, replicate Exp3
  Diffusion Coefficient: 0.0041 µm2/s
0.4% Tris NTA, without FtsZ, mean (n: WT 2, R286W 3, SUMO 3)
  Diffusion Coefficient: 0.44 µm2/s
0.4% Tris NTA, without FtsZ, replicate Exp1
  Diffusion Coefficient: 0.31 µm2/s
0.4% Tris NTA, without FtsZ, replicate Exp2
  Diffusion Coefficient: 0.56 µm2/s
0.4% Tris NTA, without FtsZ, replicate Exp3
  Diffusion Coefficient: 0.45 µm2/s
0.6% Tris NTA, + FtsZ, mean (n: WT 5, R286W 5)
  Diffusion Coefficient: 0.0744 µm2/s
0.6% Tris NTA, + FtsZ, replicate Exp1
  Diffusion Coefficient: 0.12 µm2/s
0.6% Tris NTA, + FtsZ, replicate Exp2
  Diffusion Coefficient: 2.02e-8 µm2/s
0.6% Tris NTA, + FtsZ, replicate Exp3
  Diffusion Coefficient: 9.38e-5 µm2/s
0.6% Tris NTA, + FtsZ, replicate Exp4
  Diffusion Coefficient: 0.15 µm2/s
0.6% Tris NTA, + FtsZ, replicate Exp5
  Diffusion Coefficient: 0.11 µm2/s
0.6% Tris NTA, without FtsZ, mean (n: WT 4, R286W 5, SUMO 4)
  Diffusion Coefficient: 0.33 µm2/s
0.6% Tris NTA, without FtsZ, replicate Exp1
  Diffusion Coefficient: 0.43 µm2/s
0.6% Tris NTA, without FtsZ, replicate Exp2
  Diffusion Coefficient: 0.38 µm2/s
0.6% Tris NTA, without FtsZ, replicate Exp3
  Diffusion Coefficient: 0.25 µm2/s
0.6% Tris NTA, without FtsZ, replicate Exp4
  Diffusion Coefficient: 0.30 µm2/s
0.6% Tris NTA, without FtsZ, replicate Exp5
  Diffusion Coefficient: 0.28 µm2/s
0.8% Tris NTA, + FtsZ, mean
  Diffusion Coefficient: 0.04 µm2/s
0.8% Tris NTA, + FtsZ, replicate Exp1
  Diffusion Coefficient: 0.07 µm2/s
0.8% Tris NTA, + FtsZ, replicate Exp2
  Diffusion Coefficient: 0.02 µm2/s
0.8% Tris NTA, + FtsZ, replicate Exp3
  Diffusion Coefficient: 0.0271 µm2/s
0.8% Tris NTA, + FtsZ, replicate Exp4
  Diffusion Coefficient: 0.0336 µm2/s
0.8% Tris NTA, + FtsZ, replicate Exp5
  Diffusion Coefficient: 0.0229 µm2/s
0.8% Tris NTA, + FtsZ, replicate Exp6
  Diffusion Coefficient: 0.06 µm2/s
0.8% Tris NTA, without FtsZ, mean
  Diffusion Coefficient: 0.22 µm2/s
0.8% Tris NTA, without FtsZ, replicate Exp1
  Diffusion Coefficient: 0.17 µm2/s
0.8% Tris NTA, without FtsZ, replicate Exp2
  Diffusion Coefficient: 0.22 µm2/s
0.8% Tris NTA, without FtsZ, replicate Exp3
  Diffusion Coefficient: 0.26 µm2/s
0.8% Tris NTA, without FtsZ, replicate Exp4
  Diffusion Coefficient: 0.17 µm2/s
0.8% Tris NTA, without FtsZ, replicate Exp5
  Diffusion Coefficient: 0.30 µm2/s
0.8% Tris NTA, without FtsZ, replicate Exp6
  Diffusion Coefficient: 0.20 µm2/s
1% Tris NTA, + FtsZ, mean
  Diffusion Coefficient: 0.04 µm2/s
1% Tris NTA, + FtsZ, replicate Exp1
  Diffusion Coefficient: 0.0437 µm2/s
1% Tris NTA, + FtsZ, replicate Exp2
  Diffusion Coefficient: 0.0187 µm2/s
1% Tris NTA, + FtsZ, replicate Exp3
  Diffusion Coefficient: 0.046 µm2/s
1% Tris NTA, + FtsZ, replicate Exp4
  Diffusion Coefficient: 0.0142 µm2/s
1% Tris NTA, + FtsZ, replicate Exp5
  Diffusion Coefficient: 0.03 µm2/s
1% Tris NTA, + FtsZ, replicate Exp6
  Diffusion Coefficient: 0.09 µm2/s
1% Tris NTA, without FtsZ, mean
  Diffusion Coefficient: 0.22 µm2/s
1% Tris NTA, without FtsZ, replicate Exp1
  Diffusion Coefficient: 0.32 µm2/s
1% Tris NTA, without FtsZ, replicate Exp2
  Diffusion Coefficient: 0.13 µm2/s
1% Tris NTA, without FtsZ, replicate Exp3
  Diffusion Coefficient: 0.42 µm2/s
1% Tris NTA, without FtsZ, replicate Exp4
  Diffusion Coefficient: 0.24 µm2/s
1% Tris NTA, without FtsZ, replicate Exp5
  Diffusion Coefficient: 0.09 µm2/s
1% Tris NTA, without FtsZ, replicate Exp6
  Diffusion Coefficient: 0.14 µm2/s
Tris 0.10 %, + FtsZ
  Diffusion Coefficient: 0.17 µm2/s
Tris 0.10 %, without FtsZ
  Diffusion Coefficient: 0.50 µm2/s
Tris 0.40 %, + FtsZ
  Diffusion Coefficient: 0.08 µm2/s
Tris 0.40 %, without FtsZ
  Diffusion Coefficient: 0.44 µm2/s
Tris 0.60 %, + FtsZ
  Diffusion Coefficient: 0.0744 µm2/s
Tris 0.60 %, without FtsZ
  Diffusion Coefficient: 0.33 µm2/s
Tris 0.80 %, + FtsZ
  Diffusion Coefficient: 0.04 µm2/s
Tris 0.80 %, without FtsZ
  Diffusion Coefficient: 0.22 µm2/s
Tris 1.00 %, + FtsZ
  Diffusion Coefficient: 0.04 µm2/s
Tris 1.00 %, without FtsZ
  Diffusion Coefficient: 0.22 µm2/s
Tris 2.00 %, + FtsZ
  Diffusion Coefficient: 0.02 µm2/s
Tris 2.00 %, without FtsZ
  Diffusion Coefficient: 0.035 µm2/s
[…] Tris NTA, + FtsZ, mean (n: WT 2, R286W 3)
  Diffusion Coefficient: 0.14 µm2/s
[…] Tris NTA, + FtsZ, replicate Exp1
  Diffusion Coefficient: 0.34 µm2/s
[…] Tris NTA, + FtsZ, replicate Exp2
  Diffusion Coefficient: 0.000447 µm2/s
[…] Tris NTA, + FtsZ, replicate Exp3
  Diffusion Coefficient: 0.07 µm2/s
[…] Tris NTA, without FtsZ, mean (n: WT 2, R286W 3, SUMO 3)
  Diffusion Coefficient: 0.42 µm2/s
[…] Tris NTA, without FtsZ, replicate Exp1
  Diffusion Coefficient: 0.55 µm2/s
[…] Tris NTA, without FtsZ, replicate Exp2
  Diffusion Coefficient: 0.25 µm2/s
[…] Tris NTA, without FtsZ, replicate Exp3
  Diffusion Coefficient: 0.47 µm2/s
[…] Tris-NTA, + N (FtsNcyto), mean
  Diffusion Coefficient: 4.17E-05 µm2/s
[…] Tris-NTA, + N/Z, Exp. 1
  Diffusion Coefficient: 2.50E-03 µm2/s
[…] Tris-NTA, + N/Z, Exp. 2
  Diffusion Coefficient: 2.00E-05 µm2/s
[…] Tris-NTA, + N/Z, Exp. 3
  Diffusion Coefficient: 1.00E-05 µm2/s
[…] Tris-NTA, + N/Z, mean
  Diffusion Coefficient: 8.43E-04 µm2/s
[…] Tris-NTA, + N, Exp. 1
  Diffusion Coefficient: 7.50E-05 µm2/s
[…] Tris-NTA, + N, Exp. 2
  Diffusion Coefficient: 3.00E-05 µm2/s
[…] Tris-NTA, + N, Exp. 3
  Diffusion Coefficient: 2.00E-05 µm2/s
[…] Tris-NTA, + Z (FtsZ), mean
  Diffusion Coefficient: 0.05 µm2/s
[…] Tris-NTA, + Z, Exp. 1
  Diffusion Coefficient: 0.0229 µm2/s
[…] Tris-NTA, + Z, Exp. 2
  Diffusion Coefficient: 0.04 µm2/s
[…] Tris-NTA, + Z, Exp. 3
  Diffusion Coefficient: 0.08 µm2/s
[…] Tris-NTA, alone, Exp. 1
  Diffusion Coefficient: 0.14 µm2/s
[…] Tris-NTA, alone, Exp. 2
  Diffusion Coefficient: 0.0561 µm2/s
[…] Tris-NTA, alone, Exp. 3
  Diffusion Coefficient: 0.26 µm2/s
[…] Tris-NTA, alone, mean
  Diffusion Coefficient: 0.15 µm2/s
With FtsNcyto, mean ± s.d., p-value 0.01
  Diffusion Coefficient: 8.43 × 10^−4 ± 1.17 × 10^−3 µm^2/s
Without FtsNcyto, mean ± s.d., p-value 0.01
  Diffusion Coefficient: 0.05 ± 0.04 µm^2/s
